Patent publication US7288251 (ABGENIX, dated 2007)
Where a chain is given by its changes, count along the chain named.

T1: rat CD40 on blood cells (rat, UniProt A6JXD6 20-289)
T1 construct: also called rat blood
T1 sequence: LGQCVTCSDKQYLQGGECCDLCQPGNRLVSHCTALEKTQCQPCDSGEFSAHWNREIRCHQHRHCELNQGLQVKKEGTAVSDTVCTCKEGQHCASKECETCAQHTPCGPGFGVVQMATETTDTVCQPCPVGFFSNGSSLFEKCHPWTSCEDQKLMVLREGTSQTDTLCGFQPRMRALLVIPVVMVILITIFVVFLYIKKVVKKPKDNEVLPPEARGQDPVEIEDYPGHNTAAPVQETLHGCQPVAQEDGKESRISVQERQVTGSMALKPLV

T2: dog CD40 on blood cells (dog, UniProt Q7YRL5 21-274)
T2 construct: whole, on cells; also called dog blood
T2 sequence (looked up): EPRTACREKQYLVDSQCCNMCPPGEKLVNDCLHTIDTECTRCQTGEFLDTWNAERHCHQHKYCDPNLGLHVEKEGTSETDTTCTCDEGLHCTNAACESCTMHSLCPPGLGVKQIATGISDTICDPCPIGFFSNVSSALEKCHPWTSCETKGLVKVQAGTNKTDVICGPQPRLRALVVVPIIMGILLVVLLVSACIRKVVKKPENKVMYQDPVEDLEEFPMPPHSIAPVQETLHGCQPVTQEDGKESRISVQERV

B1: monoclonal antibody 15.1.1 (antibody, human IgG2, kappa, V domains shown)
VH: QVQLQESGPGLVKPSETLSLTCTVSGGSIRSYYWTWIRQPPGKGLEWIGYIYYSGSTNYNPSLKSRVTISVDMSKNQFSLKLSSVTAADTAVYYCARKGDYGGNFNYFHQWGQGTLVTVSS
VL: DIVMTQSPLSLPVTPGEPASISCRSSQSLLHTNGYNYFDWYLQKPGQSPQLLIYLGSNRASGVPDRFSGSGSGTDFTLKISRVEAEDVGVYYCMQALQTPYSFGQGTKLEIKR
notes: Human IgG2 kappa from hybridoma; also called hybridoma 15.1.1 (LN 15851), ATCC PTA-3603
B2: monoclonal antibody 21.2.1 (antibody, human IgG2, kappa, V domains shown)
VH: QVQLVESGGGVVQPGRSLRLSCAASGFTFSSYVMHWVRQAPGKGLEWVAVMSYDGSSKYYANSVKGRFTISRDNSKNTLYLQINSLRAEDTAVYYCARDGGKAVPGPDYWGQGILVTVSS
VL: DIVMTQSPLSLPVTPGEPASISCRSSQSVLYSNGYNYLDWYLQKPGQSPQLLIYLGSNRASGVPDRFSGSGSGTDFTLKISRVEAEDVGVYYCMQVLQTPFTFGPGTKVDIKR
notes: Human IgG2 kappa from hybridoma
B3: monoclonal antibody 23.5.1 (antibody, human IgG2, kappa, V domains shown)
VH: QVQLVESGGGVVQPGRSLRLSCVASGFTFSNYGMHWVRQAPGKGLEWVAIISYDGSNKYYADSVKGRFTISRDNSKNTLYVQMNSLRAEDTAVYYCARRGHYGRDYYSYYGLDVWGQGTTVTVSS
VL: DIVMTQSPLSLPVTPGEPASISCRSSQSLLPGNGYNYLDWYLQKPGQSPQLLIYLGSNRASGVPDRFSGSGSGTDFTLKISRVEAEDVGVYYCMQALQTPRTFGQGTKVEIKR
notes: also called hybridoma 23.5.1 (LN 15855), ATCC PTA-4548
B4: monoclonal antibody 23.29.1 (antibody, human IgG2, kappa, V domains shown)
VH: B3 VH with V23A, N31S, G33A, I50V, S71Y, V81L, R104N, D105N
VL: DIVMTQSPLSLPVTPGEPASISCRSSQSLLPGNGYNYLDWYLQKPGQSPQLLIYLGSNRASGVPDRFSGSGSGTDFTLKISRVEAEDVGIYYCMQALQTPRTFGQGTKVEIKR
notes: Human IgG2 kappa from hybridoma; also called mAb 23.29.1; hybridoma 23.29.1 (LN 15878), ATCC PTA-4553

These binders were tested against T3, TNFR-2/Ig (assay: ELISA, TNFR-2/Ig coated, antibody 1 µg/ml).
T3 construct: also called Tumor Necrosis Factor Receptor-2
T3 sequence (P20333 23-257): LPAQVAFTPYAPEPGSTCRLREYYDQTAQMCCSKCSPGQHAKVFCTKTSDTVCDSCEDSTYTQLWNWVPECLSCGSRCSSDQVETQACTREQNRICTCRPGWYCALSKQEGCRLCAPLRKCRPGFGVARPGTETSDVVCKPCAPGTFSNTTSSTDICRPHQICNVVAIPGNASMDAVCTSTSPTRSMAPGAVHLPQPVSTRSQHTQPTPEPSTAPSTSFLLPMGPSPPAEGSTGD
Protocol: (§1) We then washed the plate with PBST (PBS+0.1% Tween-20) three times and blocked the plate with PBST+0.5% BSA at 150 µl/well. We incubated the plate at room temperature for 1 hour and then washed with PBST three times. […] We incubated the plate at room temperature for 1 hour then washed with PBST three times. […] We incubated the plate at room temperature for 1 hour and then washed with PBST three times. […] We then read the plate using a SpectraMax™ plate reader.

Row | Binder | CD40 specific signal over the signal for this molecule
1 | B1 | ≥ 100 fold
2 | B2 | ≥ 100 fold
3 | B3 | ≥ 100 fold
4 | B4 | ≥ 100 fold

Each binder was assayed against T4, human CD40 on cells (human, UniProt P25942 21-277) (assay: cell-based or functional assay).
T4 sequence (P25942 21-277): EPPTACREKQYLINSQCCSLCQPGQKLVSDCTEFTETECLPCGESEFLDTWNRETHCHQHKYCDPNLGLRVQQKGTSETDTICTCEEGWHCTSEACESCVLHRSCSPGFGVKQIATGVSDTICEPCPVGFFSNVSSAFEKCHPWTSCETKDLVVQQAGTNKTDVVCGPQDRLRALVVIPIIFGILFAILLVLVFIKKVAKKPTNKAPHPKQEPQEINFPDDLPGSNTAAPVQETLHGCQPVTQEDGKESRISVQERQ

Row | Binder | DC IL-12p70 secretion with LPS, EC50
5 | B2 | 0.03 µg/mL
6 | B3 | 0.1 µg/mL
7 | B4 | 0.1 µg/mL

Each binder was assayed against T5, 4-1BB/Ig (assay: ELISA, 4-1BB/Ig coated, antibody 1 µg/ml).
T5 construct: also called CD137
Protocol: as §1

Row | Binder | CD40 specific signal over the signal for this molecule
8 | B1 | ≥ 100 fold
9 | B2 | ≥ 100 fold
10 | B3 | ≥ 100 fold
11 | B4 | ≥ 100 fold

Each binder was assayed against T6, human CD40-IgG1 Fc fusion protein (human, UniProt P25942 21-193) (assay: SPR BIAcore 3000, CD40-Ig immobilised, antibody injected).
T6 construct: extracellular domain; also called CD40-Ig fusion protein; CD40-IgG fusion protein; not shown: human IgG1 Fc
T6 sequence (P25942 21-193): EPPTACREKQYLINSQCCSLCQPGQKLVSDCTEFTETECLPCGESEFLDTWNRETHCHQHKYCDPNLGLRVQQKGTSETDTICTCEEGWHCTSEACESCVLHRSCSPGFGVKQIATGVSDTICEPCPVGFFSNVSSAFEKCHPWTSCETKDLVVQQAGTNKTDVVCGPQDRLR

Row | Binder | Kd | koff | kon
12 | B1 | 0.00405 nM | 2.83e-07 s⁻¹ | 83000 M⁻¹ s⁻¹
13 | B4 | 0.0704 nM | 3.9e-05 s⁻¹ | 354000 M⁻¹ s⁻¹

The binders below were run against T7, Mouse CD40(D1-D3)-6Xhis (mouse, UniProt P27512 20-147, limits assumed) (assay: ELISA, 293F supernatant).
T7 construct: domain: D1-D3; also called Mouse CD40(D1-D3)-6xHis fusion protein
T7 sequence (P27512 other isoform, or with tags, fused parts or gaps limits assumed): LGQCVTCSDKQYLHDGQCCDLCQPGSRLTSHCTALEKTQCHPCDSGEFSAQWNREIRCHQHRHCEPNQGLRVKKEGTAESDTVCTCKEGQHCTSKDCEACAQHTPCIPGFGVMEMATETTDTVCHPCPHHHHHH
Description: Binding of anti-CD40 human antibodies were detected with HRP conjugated goat anti-human IgG (FC specific Caltag H10507), diluted 1:2,000.

Row | Binder | binding result
14 | B4 | no binding

The binders below were run against T1, rat CD40 on blood cells (assay: FACS, whole blood).

Row | Binder | binding result
15 | B1 | no binding
16 | B2 | no binding
17 | B3 | no binding
18 | B4 | no binding

The binders below were run against T8, mouse CD40 on blood cells (mouse, UniProt P27512 20-289) (assay: FACS, whole blood).
T8 construct: whole, on cells; also called mouse blood
T8 sequence (P27512 20-289): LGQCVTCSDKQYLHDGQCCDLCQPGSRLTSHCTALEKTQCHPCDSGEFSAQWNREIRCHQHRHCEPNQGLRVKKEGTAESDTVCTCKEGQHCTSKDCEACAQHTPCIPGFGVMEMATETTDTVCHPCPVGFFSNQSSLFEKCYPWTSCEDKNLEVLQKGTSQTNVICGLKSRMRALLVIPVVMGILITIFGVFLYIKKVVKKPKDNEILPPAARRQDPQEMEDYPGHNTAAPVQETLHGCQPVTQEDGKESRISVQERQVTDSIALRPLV

Row | Binder | binding result
19 | B1 | no binding
20 | B2 | no binding
21 | B3 | no binding
22 | B4 | no binding

What follows are binders tested against T2, dog CD40 on blood cells (assay: FACS, whole blood).

Row | Binder | binding result
23 | B1 | no binding
24 | B2 | no binding
25 | B3 | no binding
26 | B4 | no binding

Target: T4, human CD40 on cells
Assay: cell-based or functional assay
Remark: another data set of the same source

Row | Binder | Allo DC/T IFNγ secretion, EC50
27 | B2 | 0.03 µg/mL
28 | B3 | 0.2 µg/mL
29 | B4 | 0.3 µg/mL

What follows are binders tested against RANK/Ig (assay: ELISA, RANK/Ig coated, antibody 1 µg/ml).
Chain of RANK/Ig (Q9Y6Q6 whole entry): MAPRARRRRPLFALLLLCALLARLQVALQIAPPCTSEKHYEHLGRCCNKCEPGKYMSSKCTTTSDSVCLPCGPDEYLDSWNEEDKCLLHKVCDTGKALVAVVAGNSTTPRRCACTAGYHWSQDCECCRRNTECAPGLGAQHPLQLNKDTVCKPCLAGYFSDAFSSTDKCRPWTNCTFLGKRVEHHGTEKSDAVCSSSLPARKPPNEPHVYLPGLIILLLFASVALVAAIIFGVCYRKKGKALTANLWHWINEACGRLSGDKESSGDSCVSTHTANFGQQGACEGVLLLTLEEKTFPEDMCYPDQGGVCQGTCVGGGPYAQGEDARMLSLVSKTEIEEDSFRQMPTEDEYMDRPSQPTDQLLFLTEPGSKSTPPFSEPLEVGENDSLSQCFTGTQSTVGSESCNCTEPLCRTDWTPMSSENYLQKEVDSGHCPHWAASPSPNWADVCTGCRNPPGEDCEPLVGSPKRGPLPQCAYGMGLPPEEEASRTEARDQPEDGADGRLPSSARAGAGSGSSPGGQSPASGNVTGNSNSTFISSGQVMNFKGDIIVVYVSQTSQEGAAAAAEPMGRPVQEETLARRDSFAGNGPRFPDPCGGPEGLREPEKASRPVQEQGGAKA
Protocol: as §1

Row | Binder | CD40 specific signal over the signal for this molecule
30 | B1 | ≥ 100 fold
31 | B2 | ≥ 100 fold
32 | B3 | ≥ 100 fold
33 | B4 | ≥ 100 fold

Target: T4, human CD40 on cells
Assay: cell-based or functional assay
Remark: another data set of the same source

Row | Binder | DC B7-1 (CD80), fold increase in median intensity at 1 µg/ml, 72 h | DC B7-2 (CD86), fold increase in median intensity at 1 µg/ml, 72 h | DC CD83, fold increase in median intensity at 1 µg/ml, 72 h | DC ICAM (CD54), fold increase in median intensity at 1 µg/ml, 72 h | DC MHC Class II, fold increase in median intensity at 1 µg/ml, 72 h
34 | B2 | 0.9 fold | 7.4 fold | 10.8 fold | 1.5 fold | 1.8 fold
35 | B3 | 1.1 fold | 10.7 fold | 9.2 fold | 1.2 fold | 2.3 fold
36 | B4 | 0.9 fold | 8.4 fold | 10.6 fold | 1.2 fold | 2 fold

Target: T4, human CD40 on cells
Assay: cell-based or functional assay
Remark: another data set of the same source

Row | Binder | B cell B7-1 (CD80), fold increase in median intensity at 1 µg/ml | B cell B7-2 (CD86), fold increase in median intensity at 1 µg/ml | B cell CD23, fold increase in median intensity at 1 µg/ml | B cell ICAM (CD54), fold increase in median intensity at 1 µg/ml | B cell MHC Class II, fold increase in median intensity at 1 µg/ml
37 | B2 | 0.9 fold | 1 fold | 1 fold | 1.3 fold | 1.2 fold
38 | B3 | 1.4 fold | 1 fold | 1.1 fold | 1.1 fold | 1.4 fold
39 | B4 | 1.3 fold | 0.9 fold | 1.1 fold | 1 fold | 1.2 fold

What follows are binders tested against T9, TNFR-1/Ig (assay: ELISA, TNFR-1/Ig coated, antibody 1 µg/ml).
T9 construct: also called Tumor Necrosis Factor Receptor-1
T9 sequence (P19438 whole entry): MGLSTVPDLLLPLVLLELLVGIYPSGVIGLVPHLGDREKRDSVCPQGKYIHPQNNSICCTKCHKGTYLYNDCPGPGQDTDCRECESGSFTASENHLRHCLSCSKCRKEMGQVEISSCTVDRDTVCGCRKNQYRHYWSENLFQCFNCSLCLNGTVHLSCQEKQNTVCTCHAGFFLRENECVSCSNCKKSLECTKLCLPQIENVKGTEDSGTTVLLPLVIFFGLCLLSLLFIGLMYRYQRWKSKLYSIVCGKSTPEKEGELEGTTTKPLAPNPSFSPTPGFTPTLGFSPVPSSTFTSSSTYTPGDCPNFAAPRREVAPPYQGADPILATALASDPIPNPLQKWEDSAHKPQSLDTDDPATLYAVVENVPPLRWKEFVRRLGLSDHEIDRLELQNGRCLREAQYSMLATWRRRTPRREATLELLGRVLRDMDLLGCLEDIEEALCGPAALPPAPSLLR
Protocol: as §1

Row | Binder | CD40 specific signal over the signal for this molecule
40 | B1 | ≥ 100 fold
41 | B2 | ≥ 100 fold
42 | B3 | ≥ 100 fold
43 | B4 | ≥ 100 fold

Each binder was assayed against T10, human/mouse chimeric CD40 HuD3 (mouse; human, UniProt P27512 20-94; P25942 95-147, limits assumed) (assay: ELISA on chimeric CD40).
T10 construct: domain: D1-D2;domain: D3
T10 sequence (P27512 other isoform, or with tags, fused parts or gaps mutant limits assumed): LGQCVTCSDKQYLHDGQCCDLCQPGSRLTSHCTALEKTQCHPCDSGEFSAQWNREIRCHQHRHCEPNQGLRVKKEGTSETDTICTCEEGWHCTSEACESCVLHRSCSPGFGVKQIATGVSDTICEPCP

Row | Binder | binding result
44 | B4 | no binding

These binders were tested against T11, human/mouse chimeric CD40 HuD1, D3 (human; mouse, UniProt P25942 21-64; P27512 65-94; P25942 95-147, limits assumed) (assay: ELISA on chimeric CD40).
T11 construct: domain: D1;domain: D2;domain: D3
T11 sequence (P25942 other isoform, or with tags, fused parts or gaps mutant limits assumed): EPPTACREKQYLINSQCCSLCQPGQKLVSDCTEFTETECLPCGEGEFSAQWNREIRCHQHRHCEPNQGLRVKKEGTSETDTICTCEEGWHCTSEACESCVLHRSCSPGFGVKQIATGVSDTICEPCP

Row | Binder | binding result
45 | B4 | no binding

Each binder was assayed against T12, human/mouse chimeric CD40 HuD1 (human; mouse, UniProt P25942 21-64; P27512 65-147, limits assumed) (assay: ELISA on chimeric CD40).
T12 construct: domain: D1;domain: D2-D3
T12 sequence (P25942 other isoform, or with tags, fused parts or gaps mutant limits assumed): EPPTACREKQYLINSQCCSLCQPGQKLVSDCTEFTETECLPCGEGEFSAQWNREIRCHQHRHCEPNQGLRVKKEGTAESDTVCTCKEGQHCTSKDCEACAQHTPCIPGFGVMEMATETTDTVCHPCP

Row | Binder | binding result
46 | B4 | no binding
